Assay results as given in publication PMC10527986.

Legend:
[1] = target: hMPV pre-fusion F protein (A2 strain; A185P, A113C/A339C, RRRR furin site) (human metapneumovirus, A2 strain) (UniProt Q6WB98); experiment: SEC
[2] = target: hMPV pre-fusion F protein (A2 strain; A185P, A113C/A339C, RRRR furin site) (human metapneumovirus, A2 strain) (UniProt Q6WB98); experiment: cryo-EM structure

Which stoichiometry N [1] does the source give for “hMPV pre-fusion F protein (A2 strain; A185P, A113C/A339C, RRRR furin site) (from UniProt Q6WB98 19-539) (natural protein)” here?
The stoichiometry N was 3.

And the stoichiometry N [2]?
Its stoichiometry N is 2.
